The target of assay [1] is T1, CD73 (Homo sapiens, UniProt P21589).
T1 construct: His (Chis) (C); made in house; host or cells: 293 cells
T1 sequence (P21589 27-549 limits assumed): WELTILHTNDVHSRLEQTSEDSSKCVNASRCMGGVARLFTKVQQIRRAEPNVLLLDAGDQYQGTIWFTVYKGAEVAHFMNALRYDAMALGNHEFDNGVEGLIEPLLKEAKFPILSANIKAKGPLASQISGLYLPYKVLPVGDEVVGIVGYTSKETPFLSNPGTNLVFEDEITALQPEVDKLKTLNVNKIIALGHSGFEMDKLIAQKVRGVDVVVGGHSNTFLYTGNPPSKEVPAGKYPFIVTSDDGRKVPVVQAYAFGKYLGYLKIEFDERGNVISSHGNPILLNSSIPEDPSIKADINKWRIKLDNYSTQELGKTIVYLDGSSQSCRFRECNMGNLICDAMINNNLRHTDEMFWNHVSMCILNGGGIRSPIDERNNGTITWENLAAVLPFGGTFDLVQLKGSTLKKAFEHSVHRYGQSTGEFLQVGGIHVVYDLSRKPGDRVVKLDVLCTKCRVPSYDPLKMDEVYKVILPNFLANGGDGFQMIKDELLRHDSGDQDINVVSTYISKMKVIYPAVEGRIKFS
Kind of assay: Octet BLI affinity for CD73, Ab-BN3 on protein A sensors. Format: binding. Background: In BLI a coated tip is dipped into the sample, and binding shifts an interference pattern.

For assay [2], the target named is T1, CD73. Kind of assay: CD73 inhibition, AMP hydrolysis, malachite green phosphate assay. Format: biochemical. To be noted: for IC50: full-length IgG1 conjugated to BN3, read-out: IC50 ± SD (nM) of Ab-BN3 for inhibition of CD73.
The next assay has as its target T2, NaV1.2 (Homo sapiens, UniProt Q99250).
T2 construct: expressed in transfected cells; host or cells: HEK293
Kind of assay: Whole-cell patch clamp, HEK293-NaV1.2 cells. The assay is classed as cell-based. Particulars: for inhibitory activity against NaV1.2 at 100 nM (in words): 100 nM Ab-ASF; for inhibitory activity against NaV1.2 (in words): tested up to 500 nM.

A further assay addresses T3, NaV1.7 (Homo sapiens, UniProt Q15858).
T3 construct: expressed in transfected cells; host or cells: HEK293
Kind of assay: Whole-cell patch clamp, HEK293-NaV1.7 cells. The assay is classed as cell-based. To be noted: for inhibitory activity against NaV1.7 (in words): tested up to 500 nM where selectivity; for IC50: non-competitive screening clones, 15 min incubation, read-out: IC50 ± SEM (nM) of Ab-PEG3-ASF in inhibiting NaV1.7.

Another assay has as its target T4, NaV1.6 (Homo sapiens, UniProt Q9UQD0).
T4 construct: expressed in transfected cells; host or cells: HEK293
Nature of the assay: Whole-cell patch clamp, HEK293-NaV1.6 cells. The assay is classed as cell-based. (In general: Patch clamp records ionic current or voltage across a cell membrane.)

Positions count from the first letter of the chain named.

T3 sequence (Q15858 whole entry): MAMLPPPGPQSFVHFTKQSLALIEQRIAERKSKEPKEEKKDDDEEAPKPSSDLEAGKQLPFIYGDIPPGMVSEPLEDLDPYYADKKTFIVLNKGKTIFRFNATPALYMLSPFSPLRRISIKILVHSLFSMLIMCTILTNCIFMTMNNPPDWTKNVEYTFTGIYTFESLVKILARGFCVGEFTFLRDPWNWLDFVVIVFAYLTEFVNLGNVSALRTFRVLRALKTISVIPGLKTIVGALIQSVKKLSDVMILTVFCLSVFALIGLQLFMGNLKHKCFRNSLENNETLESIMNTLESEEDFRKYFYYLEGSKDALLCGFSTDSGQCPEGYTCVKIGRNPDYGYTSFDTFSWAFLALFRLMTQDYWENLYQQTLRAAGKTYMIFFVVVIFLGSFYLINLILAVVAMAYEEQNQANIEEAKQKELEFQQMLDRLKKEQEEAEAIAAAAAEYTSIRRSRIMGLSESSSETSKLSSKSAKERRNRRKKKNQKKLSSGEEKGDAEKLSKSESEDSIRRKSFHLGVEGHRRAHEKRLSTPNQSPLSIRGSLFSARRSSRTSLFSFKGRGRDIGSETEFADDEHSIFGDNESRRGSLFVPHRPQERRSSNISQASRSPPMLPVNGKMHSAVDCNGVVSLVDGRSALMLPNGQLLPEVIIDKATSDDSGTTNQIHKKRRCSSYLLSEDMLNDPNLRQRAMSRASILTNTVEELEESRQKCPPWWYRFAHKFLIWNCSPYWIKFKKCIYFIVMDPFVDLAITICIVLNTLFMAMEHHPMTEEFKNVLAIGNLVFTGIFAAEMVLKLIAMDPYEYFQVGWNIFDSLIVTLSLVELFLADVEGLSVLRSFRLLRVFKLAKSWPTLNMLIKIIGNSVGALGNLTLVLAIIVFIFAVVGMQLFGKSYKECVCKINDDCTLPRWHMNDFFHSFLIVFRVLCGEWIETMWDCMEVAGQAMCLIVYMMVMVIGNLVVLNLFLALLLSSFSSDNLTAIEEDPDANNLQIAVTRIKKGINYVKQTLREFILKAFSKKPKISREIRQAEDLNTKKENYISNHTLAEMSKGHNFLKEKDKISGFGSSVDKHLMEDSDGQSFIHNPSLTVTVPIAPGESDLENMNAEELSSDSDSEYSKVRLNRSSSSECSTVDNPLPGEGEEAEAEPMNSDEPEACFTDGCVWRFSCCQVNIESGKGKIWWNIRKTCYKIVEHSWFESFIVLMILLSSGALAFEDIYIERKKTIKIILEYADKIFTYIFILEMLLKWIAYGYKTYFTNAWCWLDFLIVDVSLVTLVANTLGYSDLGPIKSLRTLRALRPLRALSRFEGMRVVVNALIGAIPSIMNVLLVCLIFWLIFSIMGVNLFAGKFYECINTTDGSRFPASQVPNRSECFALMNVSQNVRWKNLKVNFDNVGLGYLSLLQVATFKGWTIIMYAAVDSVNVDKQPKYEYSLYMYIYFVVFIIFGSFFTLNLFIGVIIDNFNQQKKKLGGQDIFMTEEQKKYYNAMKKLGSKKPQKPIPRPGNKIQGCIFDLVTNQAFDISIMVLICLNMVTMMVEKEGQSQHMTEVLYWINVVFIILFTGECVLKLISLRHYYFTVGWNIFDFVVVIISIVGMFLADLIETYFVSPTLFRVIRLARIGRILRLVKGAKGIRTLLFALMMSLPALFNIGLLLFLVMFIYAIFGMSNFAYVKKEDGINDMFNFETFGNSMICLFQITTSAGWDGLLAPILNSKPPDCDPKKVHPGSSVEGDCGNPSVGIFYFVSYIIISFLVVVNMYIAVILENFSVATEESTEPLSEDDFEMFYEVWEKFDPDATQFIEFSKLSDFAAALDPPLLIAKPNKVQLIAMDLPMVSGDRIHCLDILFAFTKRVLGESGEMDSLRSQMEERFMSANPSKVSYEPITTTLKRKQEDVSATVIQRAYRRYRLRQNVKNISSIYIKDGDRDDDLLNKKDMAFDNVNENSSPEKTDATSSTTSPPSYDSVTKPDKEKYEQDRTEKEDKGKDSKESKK
T2 sequence (Q99250 whole entry): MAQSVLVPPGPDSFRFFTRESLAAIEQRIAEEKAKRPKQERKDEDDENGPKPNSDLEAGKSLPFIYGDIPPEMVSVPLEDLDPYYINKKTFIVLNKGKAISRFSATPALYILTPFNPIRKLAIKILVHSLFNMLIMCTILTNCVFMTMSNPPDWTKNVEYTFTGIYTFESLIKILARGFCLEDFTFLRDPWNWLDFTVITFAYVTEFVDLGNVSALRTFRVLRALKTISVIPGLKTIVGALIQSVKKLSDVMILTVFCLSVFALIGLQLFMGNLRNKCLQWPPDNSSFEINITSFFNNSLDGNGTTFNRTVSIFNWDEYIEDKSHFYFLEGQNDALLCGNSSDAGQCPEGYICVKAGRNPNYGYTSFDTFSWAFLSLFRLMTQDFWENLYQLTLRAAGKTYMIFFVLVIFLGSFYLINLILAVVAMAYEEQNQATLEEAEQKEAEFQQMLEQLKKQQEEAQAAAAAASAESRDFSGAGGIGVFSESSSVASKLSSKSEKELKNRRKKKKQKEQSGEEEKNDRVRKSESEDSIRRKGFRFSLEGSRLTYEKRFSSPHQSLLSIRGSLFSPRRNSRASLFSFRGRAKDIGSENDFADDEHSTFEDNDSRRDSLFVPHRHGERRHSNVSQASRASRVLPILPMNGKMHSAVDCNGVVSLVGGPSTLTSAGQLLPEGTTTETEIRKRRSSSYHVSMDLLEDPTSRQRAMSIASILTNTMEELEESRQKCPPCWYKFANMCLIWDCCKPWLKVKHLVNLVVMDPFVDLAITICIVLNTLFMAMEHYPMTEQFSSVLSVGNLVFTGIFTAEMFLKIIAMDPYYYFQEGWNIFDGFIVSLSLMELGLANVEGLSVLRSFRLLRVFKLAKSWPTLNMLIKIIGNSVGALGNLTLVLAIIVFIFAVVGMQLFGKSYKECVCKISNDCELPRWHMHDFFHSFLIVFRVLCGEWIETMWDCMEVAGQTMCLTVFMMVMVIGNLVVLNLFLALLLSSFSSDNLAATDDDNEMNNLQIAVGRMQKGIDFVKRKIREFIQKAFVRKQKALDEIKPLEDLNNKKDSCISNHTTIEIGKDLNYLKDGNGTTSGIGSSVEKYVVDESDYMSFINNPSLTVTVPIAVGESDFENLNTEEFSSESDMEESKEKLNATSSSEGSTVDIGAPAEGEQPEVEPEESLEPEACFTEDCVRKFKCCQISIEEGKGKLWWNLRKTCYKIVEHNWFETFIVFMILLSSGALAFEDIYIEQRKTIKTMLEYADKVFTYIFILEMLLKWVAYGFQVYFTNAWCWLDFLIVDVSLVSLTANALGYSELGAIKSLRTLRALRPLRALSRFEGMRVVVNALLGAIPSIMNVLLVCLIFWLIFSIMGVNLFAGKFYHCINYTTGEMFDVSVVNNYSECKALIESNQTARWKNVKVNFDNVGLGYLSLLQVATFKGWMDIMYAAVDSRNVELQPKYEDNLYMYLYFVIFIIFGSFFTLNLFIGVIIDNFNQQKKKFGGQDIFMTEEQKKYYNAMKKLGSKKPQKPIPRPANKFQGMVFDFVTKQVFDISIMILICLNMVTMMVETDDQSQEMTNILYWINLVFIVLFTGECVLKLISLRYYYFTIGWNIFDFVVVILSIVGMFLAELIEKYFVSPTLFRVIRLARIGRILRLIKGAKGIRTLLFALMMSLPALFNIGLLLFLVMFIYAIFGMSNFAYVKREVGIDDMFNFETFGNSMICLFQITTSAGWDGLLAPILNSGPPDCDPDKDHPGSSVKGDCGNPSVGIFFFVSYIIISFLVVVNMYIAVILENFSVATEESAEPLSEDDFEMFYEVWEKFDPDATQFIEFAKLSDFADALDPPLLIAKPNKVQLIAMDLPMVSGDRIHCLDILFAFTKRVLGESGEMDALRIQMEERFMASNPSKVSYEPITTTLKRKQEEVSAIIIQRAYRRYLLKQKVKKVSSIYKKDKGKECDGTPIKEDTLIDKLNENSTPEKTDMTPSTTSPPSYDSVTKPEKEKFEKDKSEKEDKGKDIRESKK

B1: 10A7-BN3: IgG1 antibody 10A7 conjugated to BN3 (conjugate)
VH: EVQLVESGGGLVQPGGSLRLSCAASGFAFSSYSMSWVRQAPGKGLEWIGSIYYSGSTYYNPSLKSRVTISADTSKNTAYLQMNSLRAEDTAVYYCARNSGFETLDYWGQGTLVTVSS
VL: DIQMTQSPSSLSASVGDRVTITCRASQGISRWLAWYQQKPGKAPNLLIYGASTLQSGVPPRFSGSRSGTDFTLTISSLQPEDFATYYCQQXYTTPPTFGQGTKLEI
modifications: non-natural residues
Consider B1, for which, in the assay with CD73 [1], the “Kdis” value was determined as 0.000191 s⁻¹ and the “Kon” value is listed as 2.15 × 10^5 1/ms. In the assay with CD73 [2] (calculated from the inhibition curves), the IC90 (usually the concentration needed for an effect of 90%) was 2.9 nM.

B2: 10A7-Fab-BN3: papain-derived Fab of 10A7 conjugated with BN3, monovalent (conjugate)
VH: B1 VH
VL: B1 VL
modifications: non-natural residues
Take B2: in the assay with CD73 [2], the “inhibitory activity against CD73 (in words)” value is reported as “retained strong inhibitory activity”.

B3: 14H4-PEG3-ASF: antibody 14H4 conjugated with ASF-PEG3-DBCO (conjugate)
VH: EVQLVESGGGLVQPGGSLRLSCAASGFSFSKFWMHWVRQAPGKGLEWVAFMAHDESNKNYADSVKGRFTISADTSKNTAYLQMNSLRAEDTAVYYCARDKVCNTFDIWGQGTLVTVSS
VL: B1 VL with G28S, R31S, W32D, A34N, N45K, G50R, S52T, T53F, Q55E, P60S
modifications: not fully specified; non-natural residues
notes: antibody 14H4 conjugated with ASF-PEG3-DBCO
B3: the “inhibitory activity against NaV1.2 at 100 nM (in words)” value with NaV1.2 is “near-complete inhibition”. Further, in the assay with NaV1.7 (100 nM), the “inhibition rate of NaV1.7 at 100 nM” value is given as “about 30%”. For the same molecule, the “inhibition rate of NaV1.7 at 500 nM” value with NaV1.7 (500 nM) is “about 40%”.

B4: 14E6-PEG3-ASF: antibody 14E6 conjugated with ASF-PEG3-DBCO (conjugate)
VH: EVQLVESGGGLVQPGGSLRLSCAASGFTFSNFAMHWVRQAPGKGLEYVSAISGGNGGGTYYADSAKGRFTISADTSKNTAYLQMNSLRAEDTAVYYCAREGNYCLDYWGQGTLVTVSS
VL: B1 VL with G28P, R31D, N45K, L46S, G50D, S52Y, T53N
modifications: not fully specified; non-natural residues
notes: antibody 14E6 conjugated with ASF-PEG3-DBCO
Consider B4, for which the “inhibitory activity against NaV1.2 at 100 nM (in words)” value in the assay with NaV1.2 was “near-complete inhibition”. Further, in the assay with NaV1.7, the “inhibitory activity against NaV1.7 (in words)” value is recorded as “no inhibitory activity”.

B5: 6D11: CD73 antibody clone, VH SEQ ID NO: 81, VL SEQ ID NO: 91 (antibody, V domains shown)
VH: EVQLVESGGGLVQPGGSLRLSCAASGFTFSGHWMHWVRQAPGKGLEWIGSIYYSGSTYYNPSLKSRVTISADTSKNTAYLQMNSLRAEDTAVYYCARDRGWLQFDYWGQGTLVTVSS
VL: B1 VL with G28N, S30G, R31T, W32Y, N45K, G50D, T53N, Q55E, S56T, P60S
modifications: VARIANT 91 natural amino acid or unnatural amino acid
For B5, in the assay with CD73 [2], the “inhibitory activity against CD73 (in words)” value is listed as “weak inhibitory trend” and the IC50 (commonly the concentration that gives 50% inhibition) stood at 0.464 nM.

B6: ABN3-2B-BN3: IgG1 antibody ABN3-2B conjugated to BN3 (conjugate)
VH: EVQLVESGGGLVQPGGSLRLSCAASGFTFSSYWMHWVRQAPGKGLEWVSAVSGSGDSTYYADSVKGRFTISADTSKNTAYLQMNSLRAEDTAVYYCAREGDWGLDYWGQGTLVTVSS
VL: B1 VL with S30N, R31N, W32Y, N45K, G50D, T53N, Q55E, S56T, P60S
modifications: not fully specified; non-natural residues
B6: in the assay with CD73 [1], the “Kdis” value came to 0.000582 s⁻¹ and the “Kon” value was 1.85 × 10^5 1/ms.

B7: 10A7: CD73 antibody clone, VH SEQ ID NO: 73, VL SEQ ID NO: 83 (antibody, V domains shown)
VH: B1 VH
VL: B1 VL
modifications: VARIANT 91 natural amino acid or unnatural amino acid
In the case of B7, the IC50 in the assay with CD73 [2] was determined as 0.607 nM.

B8: 5A5-PEG3-ASF: antibody 5A5 conjugated with ASF-PEG3-DBCO (conjugate)
VH: EVQLVESGGGLVQPGGSLRLSCAASGFPFSGHWMHWVRQAPGKGLEWVSGISWNGGTTGYADSVKGRFTISRDNAKNSVYLQMNSLRAEDTAVYYCARDDYGGDSFDSWGQGTLVTVSS
VL: B1 VL with G28S, R31D, N45K, G50A, T53S, P60S
modifications: non-natural residues
notes: antibody 5A5 conjugated with ASF-PEG3-DBCO
B8: in the assay with NaV1.6, the “improvement of NaV1.6 inhibitory activity over ASF-PEG3-DBCO” value is on record as “more than 20 fold”. The “inhibitory activity against NaV1.2 (in words)” value with NaV1.2 was “no inhibitory activity”. The “inhibitory activity against NaV1.7 (in words)” value in the assay with NaV1.7 is recorded as “no inhibitory activity”.

B9: F3-PEG3-ASF: IgG1 Ab-UAA F3 conjugated with ASF-PEG3-DBCO (conjugate)
VH: EVQLVESGGGLVQPGGSLRLSCAASGFTFSGHWMHWVRQAPGKGLEWVASISDSSSYIYYADSVRGRFTISRDNAKKTLYLQMNSLRAEDTAVYYCARDYEGATRAADYWGQGTLVTVSS
VL: DIQMTQSPSSLSASVGDRVTITCRASQVIGNDLGWYQQKPGKAPKLLIYDVSNVQTGVPSRFSGSRSGTDFTLTISSLQPEDFATYYCQQXYTTPPTFGQGTKLEI
modifications: non-natural residues
notes: IgG1 Ab-UAA F3 conjugated with ASF-PEG3-DBCO
Consider B9, for which the “inhibitory activity against NaV1.2 (in words)” value in the assay with NaV1.2 is “no inhibitory activity”. Besides, in the assay with NaV1.7, the IC50 was 2.69 ± 0.687 nM.

B10: G3-PEG3-ASF: IgG1 Ab-UAA G3 conjugated with ASF-PEG3-DBCO (conjugate)
VH: EVQLVESGGGLVQPGGSLRLSCAASGFTFSASYMSWVRQAPGKGLEWIGSIYYSGSTYYNPSLKSRVTISADTSKNTAYLQMNSLRAEDTAVYYCARGAPYYEGAFDIWGQGTLVTVSS
VL: DIQMTQSPSSLSASVGDRVTITCRASQYISTYLNWYQQKPGKAPKVLISKTSYLESGVPSRFSGSRSGTDFTLTISSLQPEDFATYYCQQXYTTPPTFGQGTKLEI
modifications: non-natural residues
notes: IgG1 Ab-UAA G3 conjugated with ASF-PEG3-DBCO
In the case of B10, the “inhibition of NaV1.2 at 500 nM” value with NaV1.2 (highest tested concentration of 500 nM) is on record as “approximately 60%”. Besides, the “inhibitory activity against NaV1.2 (in words)” value with NaV1.2 is on record as “only weak inhibitory activity”. For the same molecule, in the assay with NaV1.7, the IC50 is 1.88 ± 0.394 nM.

B11: ABN3-2G-BN3: IgG1 antibody ABN3-2G conjugated to BN3 (conjugate)
VH: EVQLVESGGGLVQPGGSLRLSCAASGITFGSYTMSWVRQAPGKGLEWIGTVHYTGKTFYSPSLKSRVTISADTSKNTAYLQMNSLRAEDTAVYYCARGRDFGEPPYVRAFDIWGQGTLVTVSS
VL: B9 VL with R24Q, Q27H, V28D, G30S, N31K, D32Y, G34N, V51A, V54L, Q55E
modifications: not fully specified; non-natural residues
Take B11: in the assay with CD73 [1], the “Kdis” value worked out at 0.000271 s⁻¹ and the “Kon” value was 3.05 × 10^5 1/ms.

B12: ABN3-2G: CD73 antibody clone, VH SEQ ID NO: 77, VL SEQ ID NO: 87 (antibody, V domains shown)
VH: B11 VH
VL: B9 VL with R24Q, Q27H, V28D, G30S, N31K, D32Y, G34N, V51A, V54L, Q55E
modifications: not fully specified; VARIANT 91 natural amino acid or unnatural amino acid
For the molecule B12, the IC50 with CD73 [2] was 0.565 nM.

(Values after patent publication US20260151499A1, “ANTIBODY DERIVATIVE AND USE THEREOF” (TSINGHUA UNIVERSITY, priority 2023, published 2026).)
